These results are taken from paper PMC8612984 (Journal of immunology (Baltimore, Md. : 1950), 2021).

T1: C1r-CCP2-SP, recombinant autoactivated domain truncation of human C1r (human, UniProt P00736 375-703)
T1 sequence: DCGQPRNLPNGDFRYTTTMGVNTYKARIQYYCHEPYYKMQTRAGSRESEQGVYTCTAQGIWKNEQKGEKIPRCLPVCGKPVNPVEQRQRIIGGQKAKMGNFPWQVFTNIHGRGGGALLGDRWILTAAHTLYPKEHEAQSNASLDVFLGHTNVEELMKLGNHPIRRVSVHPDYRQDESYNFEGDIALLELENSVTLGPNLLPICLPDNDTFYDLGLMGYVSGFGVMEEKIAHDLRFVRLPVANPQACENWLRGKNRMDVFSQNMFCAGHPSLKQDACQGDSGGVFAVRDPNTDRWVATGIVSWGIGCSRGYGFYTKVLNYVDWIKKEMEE

B1: BBK32-C (C-terminal domain of B. burgdorferi BBK32), wild type (domain or fragment)
chain: SNRYQSYLEGVKYNVDSAIQTITKIYNTYTLFSTKLTQMYSTRLDNFAKAKAKEEAAKFTKEDLEKNFKTLLNYIQVSVKTAANFVYINDTHAKRKLENIEAEIKTLIAKIKEQSNLYEAYKAIVTSILLMRDSLKEVQGIID
B2: BBK32-C R337A (residues 206–354) (domain or fragment, B. burgdorferi B31, UniProt O50835 206-354, looked up)
chain: SNRYQSYLEGVKYNVDSAIQTITKIYNTYTLFSTKLTQMYSTRLDNFAKAKAKEEAAKFTKEDLEKNFKTLLNYIQVSVKTAANFVYINDTHAKRKLENIEAEIKTLIAKIKEQSNLYEAYKAIVTSILLMADSLKEVQGIIDKNGVWY
B3: BBK32-C T242A (domain or fragment, B. burgdorferi B31, UniProt O50835 206-348, looked up)
chain: B1 chain with T37A
B4: BBK32-C T331A (domain or fragment, B. burgdorferi B31, UniProt O50835 206-348, looked up)
chain: B1 chain with T126A
B5: BBK32-C Y245A (domain or fragment, B. burgdorferi B31, UniProt O50835 206-348, looked up)
chain: B1 chain with Y40A
B6: BBK32-C L236A (domain or fragment, B. burgdorferi B31, UniProt O50835 206-348, looked up)
chain: B1 chain with L31A
B7: BBK32-C Y323A (domain or fragment, B. burgdorferi B31, UniProt O50835 206-348, looked up)
chain: B1 chain with Y118A
B8: BBK32-C K327A (domain or fragment, B. burgdorferi B31, UniProt O50835 206-348, looked up)
chain: B1 chain with K122A
B9: BBK32-C Y323A-E324A (domain or fragment, B. burgdorferi B31, UniProt O50835 206-348, looked up)
chain: B1 chain with Y118A, E119A
B10: BBK32-C N251A (domain or fragment, B. burgdorferi B31, UniProt O50835 206-348, looked up)
chain: B1 chain with N46A
B11: BBK32-C L236A-T239A (domain or fragment, B. burgdorferi B31, UniProt O50835 206-348, looked up)
chain: B1 chain with L31A, T34A
B12: BBK32-C K327A-T331A (domain or fragment, B. burgdorferi B31, UniProt O50835 206-348, looked up)
chain: B1 chain with K122A, T126A
B13: BBK32-C R248A (domain or fragment, B. burgdorferi B31, UniProt O50835 206-348, looked up)
chain: B1 chain with R43A
B14: BBK32-C T242A-Y245A (domain or fragment, B. burgdorferi B31, UniProt O50835 206-348, looked up)
chain: B1 chain with T37A, Y40A
B15: BBK32-C E324A (domain or fragment, B. burgdorferi B31, UniProt O50835 206-348, looked up)
chain: B1 chain with E119A
B16: BBK32-C T239A (domain or fragment, B. burgdorferi B31, UniProt O50835 206-348, looked up)
chain: B1 chain with T34A

Changes are numbered by the printed parent chain. In names and notes the source's numbering stands. Several values for one entry are separate records, joined by “and”; a condition that tells them apart may be missing. Equal values may be shown once.

The target in the first experiment is T1, C1r-CCP2-SP, recombinant autoactivated …. The experiment can be described thus: SEC-MALS + other: SEC-SAXS. In general terms: In gel filtration, larger molecules generally elute earlier.
A word on the stoichiometry N: it is the number of molecules, sites or subunits per partner or assembly. On to B1, for which the “stoichiometry N” value came to 1.

Another experiment has the same target. Kind of experiment: SPR. In general terms: In SPR one partner is held on a chip, and binding of the other changes the refractive index at the surface.
The term Kd denotes the free concentration of one partner at which half of the binding sites on the other are occupied at equilibrium, for simple one-to-one binding. As a reminder, the koff is a measure of how fast the partners let go of each other. As a reminder, the kon is the second-order rate constant of association. As to B2, the Kd was 0.78 ± 0.13 nM, the koff is 8.8e-05 s⁻¹ and the on-rate constant (kon) was 110000 M⁻¹ s⁻¹.
Consider B1, for which the Kd is 0.45 nM and 0.78 nM; the dissociation rate constant (koff) is 4.5e-05 s⁻¹ and 6.3e-05 s⁻¹; the kon was 100000 M⁻¹ s⁻¹ and 81000 M⁻¹ s⁻¹.
As to B3, the Kd was determined as 0.96 nM, the koff worked out at 9.9e-05 s⁻¹ and the association rate constant (kon) was determined as 100000 M⁻¹ s⁻¹.
Take B4: the Kd came out at 0.73 ± 0.3 nM, the off-rate (koff) stood at 8.2e-05 s⁻¹ and the kon stood at 140000 M⁻¹ s⁻¹.
For B5 the same measures were 1.3 ± 0.01 nM, 0.00035 s⁻¹ and 280000 M⁻¹ s⁻¹.
For the molecule B6, the Kd amounted to 0.15 nM, the koff stood at 3.5e-05 s⁻¹ and the kon was 230000 M⁻¹ s⁻¹.
For B7 the same measures were 0.87 ± 0.06 nM, 0.00016 s⁻¹ and 180000 M⁻¹ s⁻¹.
As to B8, the Kd is 120 ± 50 nM, the koff was 0.0075 s⁻¹ and the kon is 97000 M⁻¹ s⁻¹.
Take B9: the Kd is 480 ± 51 nM, the koff stood at 0.046 s⁻¹ and the kon was found to be 100000 M⁻¹ s⁻¹.
For B10 the same measures were 0.61 ± 0.21 nM, 0.00011 s⁻¹ and 180000 M⁻¹ s⁻¹.
For B11 the same measures were 0.18 nM, 4.3e-05 s⁻¹ and 240000 M⁻¹ s⁻¹.
For the molecule B12, the Kd was determined as 510 ± 200 nM, the koff turned out to be 0.026 s⁻¹ and the kon amounted to 37000 M⁻¹ s⁻¹.
As for B13, the Kd amounted to 5.8 ± 0.1 nM, the dissociation rate constant (koff) was determined as 0.0013 s⁻¹ and the kon was determined as 220000 M⁻¹ s⁻¹.
For B14 the same measures were 57 ± 0.1 nM, 0.012 s⁻¹ and 210000 M⁻¹ s⁻¹.
B15: the equilibrium dissociation constant (Kd) worked out at 1.6 ± 0.07 nM, the koff stood at 0.00034 s⁻¹ and the kon was determined as 200000 M⁻¹ s⁻¹.
In the same order, the values of B16 are 0.17 nM, 4.4e-05 s⁻¹ and 260000 M⁻¹ s⁻¹.
